Experimental data as given in patent publication US20260124210A1.

Molecular target: mouse PD-L1 (surface receptor on LLC-JSP and 4T1 murine cancer cells) (mouse) (UniProt Q9EP73)
Experiment: flow cytometry uptake of dye-siRNA tagged p-iPLK1-NP by 4T1 cells, 1 h exposure (FIG. 11B)

Sequence of mouse PD-L1 (surface receptor on LLC-JSP and 4T1 murine cancer cells) (mouse) (Q9EP73 19-290): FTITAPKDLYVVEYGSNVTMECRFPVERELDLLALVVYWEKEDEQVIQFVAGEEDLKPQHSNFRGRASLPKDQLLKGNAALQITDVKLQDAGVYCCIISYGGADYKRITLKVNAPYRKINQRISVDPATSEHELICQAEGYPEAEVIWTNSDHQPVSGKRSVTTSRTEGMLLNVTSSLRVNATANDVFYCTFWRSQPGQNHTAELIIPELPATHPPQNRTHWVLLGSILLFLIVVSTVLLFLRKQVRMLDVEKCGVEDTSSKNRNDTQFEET

- cellular uptake, PD-L1 high cells vs. PD-L1 low cells (fold): 4 fold
Substance: p-iPLK1-NP (mesoporous silica nanoparticle coated with PEI and PEG, loaded with PLK1 inhibitor volasertib and conjugated with mouse PD-L1 antibody)
